From the supplement of paper PMC10126150
± gives the standard deviation of the averaged measurements.

Tested on: ATP
Test: switch fluorescence ratio, 500 uM ATP over buffer (Cy3 cluster intensity, sum of 5 cycles each) (fold (ratio)); higher = stronger signal-on switching upon ATP binding; sequences stand for … in TCGTCGGCAGCGTCAGATGTGTATAAGAGACAGTTTTTTTTTTTTTTTTTTTTTTTTT…TC
Settings: aptamer strand: ATP DNA aptamer (quencher-CACCTGGGGGAGTATTGCGGAGGAAGG + anchor), 100 nM annealed; ATP concentration: 500 uM
Outline: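 Imaging in selection buffer was followed by imaging after 15 min with 500 uM ATP at 22 °C, for Cy3-labelled switching-strand clusters annealed to 100 nM quencher-labelled ATP aptamer on a modified Illumina MiSeq flow-cell. Five of these buffer/ATP cycles ran, separated by NaOH stripping and re-annealing. The fluorescence ratio per cluster is summed target-cycle over summed buffer-cycle Cy3 intensity, averaged per switch-domain sequence; clusters outside 100-1000 RFU were removed.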
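Also: ATP exposure 15 min at 22 °C before imaging.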

| Sequence | switch fluorescence ratio |
| --- | --- |
| AGGCAGTTTC | 0.988 ± 0.049 |
| AGGCATATGG | 0.993 ± 0.057 |
| AGGCATGATG | 1.0051 ± 0.00033 |
| AGGCCCTAGG | 1.046 ± 0.0036 |
| AGGCCGAGGA | 0.991 ± 0.018 |
| AGGCCGGAAT | 1.27 ± 0.46 |
| AGGCCGTATT | 1 ± 0.029 |
| AGGCCGTCCT | 1.02 ± 0.1 |
| AGGCCGTCGT | 1.043 ± 0.0064 |
| AGGCCTCGGG | 1.022 ± 0.0054 |
| AGGCCTGCGG | 1.05 ± 0.033 |
| AGGCGAAGCA | 0.9923 ± 0.0092 |
| AGGCGACATT | 0.9819 ± 0.0056 |
| AGGCGCAAGC | 1.07 ± 0.048 |
| AGGCGCCTGG | 0.964 ± 0.04 |
| AGGCGGAACT | 1.02 ± 0.026 |
| AGGCGGAGTT | 0.97011 ± 0.00078 |
| AGGCGGCCGT | 0.9889 ± 0.0082 |
| AGGCGGGACA | 1.025 ± 0.0082 |
| AGGCGGGGCT | 0.97301 ± 0.00064 |
| AGGCGGGGTT | 1.01 ± 0.026 |
| AGGCGGTAGC | 1.02 ± 0.0037 |
| AGGCGTTGAG | 0.976 ± 0.018 |

| Sequence | switch fluorescence ratio |
| --- | --- |
| AGGCTAAAGG | 1 ± 0.026 |
| AGGCTATGTA | 0.9998 ± 0.0042 |
| AGGCTGGCTA | 1 ± 0.019 |
| AGGCTTAAGA | 0.976 ± 0.031 |
| AGGCTTAATC | 0.9903 ± 0.0069 |
| AGGCTTACTC | 1.39 ± 0.028 |
| AGGCTTAGG | 0.957 ± 0.0032 |
| AGGCTTGCCA | 0.9991 ± 0.0016 |
| AGGCTTGTGC | 1.01 ± 0.081 |
| AGGCTTTGCA | 0.992 ± 0.01 |
| AGGGAAAGGA | 0.9889 ± 0.0085 |
| AGGGAAAGTG | 0.971 ± 0.02 |
| AGGGAACGGG | 1.01 ± 0.055 |
| AGGGAATGTA | 0.99 ± 0.016 |
| AGGGAATTTG | 1.014 ± 0.0021 |
| AGGGACGCGA | 1.26 ± 0.037 |
| AGGGAGAATT | 1 ± 0.013 |
| AGGGAGCGGT | 1.026 ± 0.0063 |
| AGGGAGCTGT | 1.023 ± 0.0015 |
| AGGGAGGAGT | 0.988 ± 0.026 |
| AGGGAGGATT | 0.965 ± 0.034 |
| AGGGAGGCAG | 1 ± 0.033 |
| AGGGAGTCTC | 0.98 ± 0.031 |

| Sequence | switch fluorescence ratio |
| --- | --- |
| AGGGAGTCTT | 0.971 ± 0.052 |
| AGGGATAAAG | 1.01 ± 0.023 |
| AGGGATAGCT | 0.967 ± 0.006 |
| AGGGATCCTA | 0.978 ± 0.012 |
| AGGGATCGGT | 0.979 ± 0.025 |
| AGGGATGAGA | 0.9965 ± 0.0024 |
| AGGGCAAAAG | 1.03 ± 0.006 |
| AGGGCAATGG | 1.29 ± 0.38 |
| AGGGCAATGT | 1.11 ± 0.032 |
| AGGGCACATA | 1.0764 ± 9.5e-05 |
| AGGGCACGGG | 0.982 ± 0.023 |
| AGGGCAGGAC | 1.41 ± 0.024 |
| AGGGCAGGG | 0.975 ± 0.065 |
| AGGGCAGGGA | 0.993 ± 0.017 |
| AGGGCAGGTG | 2.65 ± 0.13 |
| AGGGCATTAG | 1 ± 0.1 |
| AGGGCCGGTC | 1.06 ± 0.04 |
| AGGGCGGCTG | 0.985 ± 0.024 |
| AGGGCGGGGA | 1.01 ± 0.058 |
| AGGGCGGGGC | 0.944 ± 0.061 |
| AGGGCGGTAT | 1.0286 ± 0.00059 |
| AGGGCGGTCT | 1.07 ± 0.18 |
| AGGGCGTAAG | 0.9716 ± 0.0055 |

| Sequence | switch fluorescence ratio |
| --- | --- |
| AGGGCGTTTC | 1.009 ± 0.0032 |
| AGGGCTCGTT | 0.9801 ± 0.0094 |
| AGGGCTGCTA | 0.996 ± 0.046 |
| AGGGCTTGCT | 0.987 ± 0.038 |
| AGGGGAAAAG | 0.993 ± 0.049 |
| AGGGGAAAGT | 0.954 ± 0.052 |
| AGGGGAATCG | 1.01 ± 0.016 |
| AGGGGACGAT | 0.9887 ± 0.0056 |
| AGGGGAGGTA | 0.965 ± 0.021 |
| AGGGGAGTTG | 0.995 ± 0.027 |
| AGGGGAGTTT | 1 ± 0.041 |
| AGGGGCAGAG | 1.06 ± 0.092 |
| AGGGGCCCGT | 0.99 ± 0.038 |
| AGGGGCGACT | 0.984 ± 0.03 |
| AGGGGCGGGT | 1.23 ± 0.46 |
| AGGGGCGTAA | 1 ± 0.05 |
| AGGGGCGTGC | 0.977 ± 0.015 |
| AGGGGCTATG | 1.01 ± 0.032 |
| AGGGGCTGTG | 0.9991 ± 0.0074 |
| AGGGGGAAAC | 1.01 ± 0.027 |
| AGGGGGAACT | 1.03 ± 0.033 |
| AGGGGGACCC | 1 ± 0.058 |
| AGGGGGAGCT | 1.005 ± 0.0056 |

| Sequence | switch fluorescence ratio |
| --- | --- |
| AGGGGGAGTG | 0.987 ± 0.036 |
| AGGGGGATTA | 0.993 ± 0.019 |
| AGGGGGCCTT | 1.0113 ± 0.00015 |
| AGGGGGGAAA | 1.01 ± 0.027 |
| AGGGGGGCAG | 0.987 ± 0.032 |
| AGGGGGGGCC | 0.992 ± 0.038 |
| AGGGGGGGCT | 0.985 ± 0.024 |
| AGGGGGGGGG | 1.02 ± 0.072 |
| AGGGGGGTAC | 0.991 ± 0.041 |
| AGGGGGGTTC | 0.994 ± 0.023 |
| AGGGGGTACA | 1.01 ± 0.016 |
| AGGGGGTGTT | 1.02 ± 0.015 |
| AGGGGGTTGG | 1 ± 0.032 |
| AGGGGTAAGA | 1.01 ± 0.032 |
| AGGGGTAGGA | 0.99 ± 0.034 |
| AGGGGTAGGT | 0.982 ± 0.019 |
| AGGGGTATGC | 0.979 ± 0.033 |
| AGGGGTCCGT | 0.969 ± 0.018 |
| AGGGGTGTCC | 1.01 ± 0.029 |
| AGGGGTTAGT | 0.999 ± 0.036 |
| AGGGGTTATA | 1.01 ± 0.024 |
| AGGGGTTTTG | 0.989 ± 0.022 |
| AGGGTAAATA | 1.0193 ± 0.00016 |

| Sequence | switch fluorescence ratio |
| --- | --- |
| AGGGTAACGG | 0.995 ± 0.028 |
| AGGGTAATCA | 0.993 ± 0.03 |
| AGGGTACCTG | 1.01 ± 0.015 |
| AGGGTACTTG | 1 ± 0.03 |
| AGGGTAGATA | 1 ± 0.044 |
| AGGGTAGATT | 0.977 ± 0.054 |
| AGGGTAGCGA | 1.03 ± 0.017 |
| AGGGTAGCGG | 0.955 ± 0.012 |
| AGGGTAGCTA | 0.958 ± 0.016 |
| AGGGTAGGTC | 1.06 ± 0.087 |
| AGGGTATCGC | 0.9932 ± 0.0065 |
| AGGGTCAATC | 1.04 ± 0.05 |
| AGGGTCAGGT | 1 ± 0.013 |
| AGGGTCGGCG | 1.01 ± 0.027 |
| AGGGTGGAAT | 1.068 ± 0.01 |
| AGGGTGGGG | 0.928 ± 0.076 |
| AGGGTGGGGA | 1.01 ± 0.036 |
| AGGGTGTCGA | 1.02 ± 0.012 |
| AGGGTGTGCT | 1.015 ± 0.0042 |
| AGGGTTAAGG | 1.017 ± 0.0078 |
| AGGGTTACGA | 0.976 ± 0.038 |
| AGGGTTACGC | 1.04 ± 0.11 |
| AGGGTTATAA | 0.969 ± 0.033 |

| Sequence | switch fluorescence ratio |
| --- | --- |
| AGGGTTATGA | 0.995 ± 0.021 |
| AGGGTTCTTT | 1 ± 0.029 |
| AGGGTTGAAC | 1 ± 0.023 |
| AGGGTTGCGA | 1.02 ± 0.025 |
| AGGGTTTAAA | 1 ± 0.036 |
| AGGGTTTAGC | 1.02 ± 0.032 |
| AGGGTTTAGT | 1 ± 0.01 |
| AGGTAAGGGC | 1.01 ± 0.015 |
| AGGTAATAGT | 1.03 ± 0.028 |
| AGGTACACCT | 1.08 ± 0.053 |
| AGGTACGAGG | 1.006 ± 0.003 |
| AGGTACGATT | 1.02 ± 0.034 |
| AGGTACGGGA | 1.03 ± 0.074 |
| AGGTACTAGG | 1.036 ± 0.0041 |
| AGGTAGAATA | 0.989 ± 0.031 |
| AGGTAGAGTA | 0.97 ± 0.034 |
| AGGTAGGCGG | 0.969 ± 0.055 |
| AGGTAGGGAA | 0.9928 ± 0.0037 |
| AGGTAGGGGC | 1.02 ± 0.026 |
